One series addresses T1, GST-Pdcd4 wt (human, UniProt Q53EL6 1-469).
T1 sequence: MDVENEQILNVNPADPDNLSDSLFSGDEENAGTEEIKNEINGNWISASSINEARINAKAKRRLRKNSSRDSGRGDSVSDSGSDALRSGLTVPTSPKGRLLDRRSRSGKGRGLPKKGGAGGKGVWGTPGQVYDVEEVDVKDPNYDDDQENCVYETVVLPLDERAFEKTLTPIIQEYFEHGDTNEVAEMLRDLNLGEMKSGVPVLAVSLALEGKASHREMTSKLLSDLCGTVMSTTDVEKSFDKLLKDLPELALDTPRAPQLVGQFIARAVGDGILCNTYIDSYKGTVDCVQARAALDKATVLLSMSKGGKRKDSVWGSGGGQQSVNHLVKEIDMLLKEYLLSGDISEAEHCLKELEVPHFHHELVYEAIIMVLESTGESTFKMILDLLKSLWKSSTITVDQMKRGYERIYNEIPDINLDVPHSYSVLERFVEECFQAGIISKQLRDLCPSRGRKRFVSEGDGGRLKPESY
As to the kind of experiment: EMSA; EMSA: 10 mM Tris-HCl pH 7.8, 100 mM NaCl, 1 mM EDTA, 2% ficoll, 30 min on ice; blot: 10 mM Tris-HCl pH 7.5, 5 mM KCl, 2 mM MgCl2, room temperature; poly(U): 10. Particulars: protein: recombinant; tags: GST; label: 5' 32P; single strand.

A further series concerns the target His-PABP-RRM1-4 (mouse, UniProt P29341 1-375). Described as above. The conditions noted are these: protein: recombinant; tags: His; label: 5' 32P; single strand.

The source of these data is paper PMC4176178, “An evolutionarily conserved interaction of tumor suppressor protein Pdcd4 with the poly(A)-binding protein contributes to translation suppression by Pdcd4”.

Sequence of His-PABP-RRM1-4 (P29341 1-375): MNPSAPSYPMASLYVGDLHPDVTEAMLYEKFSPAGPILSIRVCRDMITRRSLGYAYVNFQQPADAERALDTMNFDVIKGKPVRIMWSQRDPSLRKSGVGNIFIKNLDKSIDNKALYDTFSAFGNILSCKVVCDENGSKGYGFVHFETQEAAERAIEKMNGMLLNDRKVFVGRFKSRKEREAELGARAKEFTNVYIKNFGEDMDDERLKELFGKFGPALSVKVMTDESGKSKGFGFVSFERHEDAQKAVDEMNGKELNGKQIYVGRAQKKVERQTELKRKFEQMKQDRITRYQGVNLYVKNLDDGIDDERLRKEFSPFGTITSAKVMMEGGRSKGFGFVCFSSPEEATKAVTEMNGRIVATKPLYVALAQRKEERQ

With AAAAAAAAAAAAAAAAAAAAAAAAA (ssRNA) [oligo(A)25], the binding result with GST-Pdcd4 wt was “no binding”; with His-PABP-RRM1-4, “binds”.
